For one substance, Kd results are on record in US20140072558A1.

This assay addresses ACVR2B as used in surface plasmon resonance (UniProt Q13705). As to the kind of experiment: SPR; with 0.625 nM B09. For orientation: In SPR one partner is held on a chip, and binding of the other changes the refractive index at the surface.

Sequence of ACVR2B as used in surface plasmon resonance (Q13705 19-134): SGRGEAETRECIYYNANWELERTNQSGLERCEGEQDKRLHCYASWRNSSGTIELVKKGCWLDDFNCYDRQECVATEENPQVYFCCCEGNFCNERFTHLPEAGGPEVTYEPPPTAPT

For the substance “water-soluble DLK1 treated together with the B09 antibody (from UniProt P80370 25-302)”, the Kd is 4.07E-10 ?.
